Like-named read-outs stand apart in the source and are kept apart here. Values belong to the binder of their own block, whether it stands above or below them.
Experiments:
[1] = target: T1, human IL-33 (human, UniProt O95760 112-270, limits assumed); test: KinExA solution affinity, fixed antigen format
T1 construct: Limits stated for the R&D protein; also called human IL-33 WT; reduced human IL-33
T1 sequence (looked up): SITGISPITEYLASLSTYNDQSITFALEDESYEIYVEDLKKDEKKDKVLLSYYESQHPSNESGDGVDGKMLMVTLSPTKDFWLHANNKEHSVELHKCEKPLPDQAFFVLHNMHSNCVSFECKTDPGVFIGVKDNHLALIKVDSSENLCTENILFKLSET
Experimental: Samples were prepared in PBS containing 0.1% sodium azide and 1.0 mg/mL bovine serum albumin (BSA). […] The fixed active binding concentrations (ABC) of biotinylated human IL 33 used were 10 pM and 100 pM. Biotinylated human IL-33 wild-type (WT) was reduced with 3 mM Dithiothreitol (DTT) for 2 hours at room temperature before use. The samples were allowed to equilibrate for at least 72 hours at room temperature before passing them through a flow cell that contained the test article anti-IL-33 antibody being evaluated adsorbed to polymethylmethacrylate (PMMA) beads (Sapidyne). […] Data analysis was performed with KinExA Pro software version 4.3.11 (Sapidyne). […] The ‘drift correction’ fitting option was used when responses varied between replicate injections. Two curves were obtained in independent experiments and analyzed using the ‘n-curve analysis’ tool to obtain global best fit values for the KD and active concentration of IL-33 cytokine. The software reports each best fit value along with a 95% confidence interval.

[2] = target: T2, human IL-4 (human, UniProt P05112 25-153); test: cell-based or functional assay
T2 sequence (looked up): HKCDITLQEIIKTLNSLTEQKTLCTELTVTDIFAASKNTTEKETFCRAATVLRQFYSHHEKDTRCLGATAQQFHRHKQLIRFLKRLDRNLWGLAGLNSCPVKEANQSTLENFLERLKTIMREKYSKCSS

[3] = target: T2, human IL-4; test: cell-based or functional assay; remark: listed apart in the source
[4] = target: T3, recombinant cynomolgus monkey IL-4 (cynomolgus monkey, UniProt P79339 25-153); test: KinExA, fixed antigen format
T3 construct: also called Cyno IL-4
T3 sequence (looked up): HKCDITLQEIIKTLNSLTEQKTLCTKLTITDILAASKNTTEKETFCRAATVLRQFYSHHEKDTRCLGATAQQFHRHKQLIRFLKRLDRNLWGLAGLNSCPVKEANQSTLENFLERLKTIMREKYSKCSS
Experimental: (§1) Samples were prepared in PBS containing 0.1% sodium azide and 1.0 mg/ml BSA. The fixed antigen assay method was used to determine binding affinity. […] Each trispecific and IL-4 cytokine were equilibrated for at least 72 hours at room temperature, then passed through a flow cell containing Polymethylmethacrylate (PMMA) beads coated with anti-hIL-4 Ab-0002 (Pfizer) that contains the same IL-4 binding domain as the trispecifics. […] Data analysis was performed with KinExA Pro software version 4.3.11 (Sapidyne). […] The ‘drift correction’ fitting option was used when responses varied between replicate injections. Two curves were obtained in independent experiments and analyzed using the ‘n-curve analysis’ tool to obtain global best fit values for the KD and active concentration of IL-4 cytokine. The software reports each best fit value along with a 95% confidence interval.

[5] = target: T4, recombinant human IL-4 (human, UniProt P05112 25-153); test: KinExA, fixed antigen format
T4 construct: Recombinant cytokine from several sources (R&D Systems, Syngene); treated as one molecule; also called rHu IL-4
T4 sequence (looked up): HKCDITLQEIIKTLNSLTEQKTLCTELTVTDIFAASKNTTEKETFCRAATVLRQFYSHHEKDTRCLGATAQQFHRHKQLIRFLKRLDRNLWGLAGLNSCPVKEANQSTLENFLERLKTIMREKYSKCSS
Experimental: as §1

[6] = target: T4, recombinant human IL-4; test: cell-based or functional assay
[7] = target: T5, recombinant human IL-13 (human, UniProt P35225 35-146); test: cell-based or functional assay
T5 sequence (P35225 35-146 limits assumed): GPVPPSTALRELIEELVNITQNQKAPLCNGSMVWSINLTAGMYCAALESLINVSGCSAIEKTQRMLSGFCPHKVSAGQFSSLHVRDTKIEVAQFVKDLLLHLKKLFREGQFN

[8] = target: T3, recombinant cynomolgus monkey IL-4; test: cell-based or functional assay
[9] = target: T4, recombinant human IL-4; test: cell-based or functional assay; remark: listed apart in the source
[10] = target: T5, recombinant human IL-13; test: cell-based or functional assay; remark: listed apart in the source
[11] = target: T5, recombinant human IL-13; test: KinExA, fixed antigen format
Experimental: (§2) Samples were prepared in PBS containing 0.1% sodium azide and 1.0 mg/ml BSA. The fixed antigen assay method was used to determine binding affinity. […] Data analysis was performed with KinExA Pro software version 4.3.11 (Sapidyne). […] The ‘drift correction’ fitting option was used when responses varied between replicate injections. Two curves were obtained in independent experiments and analyzed using the ‘n-curve analysis’ tool to obtain global best fit values for the KD and active concentration of IL-13 cytokine. The software reports each best fit value along with a 95% confidence interval.

[12] = target: T6, recombinant cynomolgus monkey IL-13 (cynomolgus monkey, UniProt Q0PW92 19-132); test: KinExA, fixed antigen format
T6 construct: also called Cyno IL-13
T6 sequence (Q0PW92 entry or part of it limits assumed): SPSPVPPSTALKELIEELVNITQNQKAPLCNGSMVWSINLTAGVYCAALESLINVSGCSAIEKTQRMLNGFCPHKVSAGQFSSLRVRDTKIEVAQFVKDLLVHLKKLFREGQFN
Experimental: as §2

[13] = target: T4, recombinant human IL-4; test: cell-based or functional assay; remark: listed apart in the source
[14] = target: T7, IL-33 mm2 (human, UniProt O95760 112-270, limits assumed); test: cell-based or functional assay
T7 sequence (looked up): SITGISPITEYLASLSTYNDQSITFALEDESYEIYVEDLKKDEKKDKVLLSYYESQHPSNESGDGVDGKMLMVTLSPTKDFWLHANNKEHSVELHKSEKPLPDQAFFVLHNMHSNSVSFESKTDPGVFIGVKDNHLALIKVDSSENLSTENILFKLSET

[15] = target: T8, recombinant human IL-33 (human, UniProt O95760 112-270, limits assumed); test: cell-based or functional assay
T8 sequence (looked up): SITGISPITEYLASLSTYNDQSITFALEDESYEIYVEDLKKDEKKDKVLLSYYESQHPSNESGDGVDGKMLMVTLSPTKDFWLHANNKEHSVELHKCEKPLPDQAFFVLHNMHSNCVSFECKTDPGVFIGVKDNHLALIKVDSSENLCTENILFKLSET

[16] = target: T5, recombinant human IL-13; test: cell-based or functional assay; remark: listed apart in the source
[17] = target: T8, recombinant human IL-33; test: cell-based or functional assay; remark: listed apart in the source
[18] = target: T4, recombinant human IL-4; test: cell-based or functional assay; remark: listed apart in the source
[19] = target: T5, recombinant human IL-13; test: cell-based or functional assay; remark: listed apart in the source
[20] = target: T6, recombinant cynomolgus monkey IL-13; test: cell-based or functional assay

fold higher affinity relative to the IL33-0352 benchmark antibody [1]: ~3 fold
fold higher affinity than IL33-0232 antibody [1]: ~14 fold
B1: IL33-0726 (antibody, human IgG1, kappa, V domains shown)
VH: EVQLVESGGGLVQPGGSLRLSCAASGFTFSSYWMYWVRQAPGKGLEWVAAITPNAGEDYYPESVKGRFTISRDNAKNSLYLQMNSLRAEDTAVYYCARGQYYYTKYSLGYWGQGTLVTVSS
VL: DIQMTQSPSSLSASVGDRVTITCRASQPIHNHLDWYQQKPGKAPKLLIYFGKNLQEGVPSRFSGSGSGTDFTLTISSLQPEDFATYYCFQYKKGWSFGGGTKVEIKR
notes: also called IL13433-0726; IL33-0726 IgG

pSTAT6: Fold bioactivity relative to IL4-1284 [2]: 1 fold
pSTAT6: Fold bioactivity relative to IL4-1285 [2]: 0.6 fold
pSTAT6 IC50 [pM] [2]: 125 pM
pSTAT6 IC50 [pM] [3]: 125 pM
B2: IL4-1284 (antibody, human IgG1, kappa, V domains shown)
VH: QVTLRESGPALVKPTQTLTLTCTFSGFSLSTSGMGVSWIRQPPGKGLEWLAHIYWDDDKRYNPSLKSRLTISKDTSRNQVVLTMTNMDPVDTATYYCARRETVFYWYFDVWGRGTPVTVSS
VL: DIVMTQSPDSLAVSLGERATINCKASQSVDYDGDSYMNWYQQKPGQPPKLLIYAASNLESGVPDRFSGSGSGTDFTLTISSLQAEDVAVYYCQQSNEDPPRFGGGTKVEIKR

Kd [4]: 0.00296 nM
Kd [5]: 0.000477 nM
IC50 (median), IL-4 induced CD23 expression on human monocytes [6]: 0.01 nM
IC50 (median), IL-13 induced CD23 expression on human monocytes [7]: 0.0117 nM
IC50 (median), CD23 expression, Human Whole Blood [8]: 0.0321 nM
IC50 (median), CD23 expression, Peripheral Blood Monocytes [8]: 0.0136 nM
IC50 (median), CD23 expression, Human Whole Blood [9]: 0.0232 nM
IC50 (median), CD23 expression, Peripheral Blood Monocytes [9]: 0.01 nM
IC50 (median), IL-13 induced CD23 expression on human monocytes [10]: 0.0117 nM
Kd [11]: 0.000612 nM
Kd [12]: 0.000866 nM
IC50 (median), IL-4 induced CD23 expression on human monocytes [13]: 0.01 nM
IC50 (mean), IFNg Whole Blood (IL-12 plus IL-33 mm2-Cys) [14]: 0.0125 nM
IC50 (mean), HEK-Blue IL-33 SEAP [15]: 0.0134 nM
IL-13 Induced CD23 Expression, potency of cytokine neutralization [16]: 0.00935 nM
IL-33 WT Activation of SEAP Reporter Cells, potency of cytokine neutralization [17]: 0.013 nM
IL-4 Induced CD23 Expression, potency of cytokine neutralization [18]: 0.013 nM
IC50 (median), CD23 expression, Human Whole Blood [19]: 0.0161 nM
IC50 (median), CD23 expression, Peripheral Blood Monocytes [19]: 0.0117 nM
IC50 (median), CD23 expression, Human Whole Blood [20]: 0.0505 nM
IC50 (median), CD23 expression, Peripheral Blood Monocytes [20]: 0.0528 nM
B3: IL13433-1258 (other)
heavy: EVQLVESGGGLVQPGGSLRLSCAASGFTFSSYWMYWVRQAPGKGLEWVAAITPNAGEDYYPESVKGRFTISRDNAKNSLYLQMNSLRAEDTAVYYCARGQYYYTKYSLGYWGQGTLVTVSSASTKGPSVFPLAPSSKSTSGGTAALGCLVKDYFPEPVTVSWNSGALTSGVHTFPAVLQSSGLYSLSSVVTVPSSSLGTQTYICNVNHKPSNTKVDKKVEPKSCRKTHTCPPCPAPEAAGAPSVFLFPPKPKDTLMISRTPEVTCVVVDVSHEDPEVKFNWYVDGVEVHNAKTKPREEQYNSTYRVVSVLTVLHQDWLNGKEYKCKVSNKALPAPIEKTISKAKGQPREPQVYTLPPSREEMTKNQVSLTCLVKGFYPSDIAVEWESNGQPENNYKTTPPVLDSDGSFFLYSRLTVDKSRWQQGNVFSCSVLHEALHSHYTQKSLSLSPGK
chain 1: DIQMTQSPSSLSASVGDRVTITCKASESVDHFGWSLVHWYQQKPGKAPKLLIYRASNLESGVPSRFSGSGSGTDFTLTISSLQPEDFATYYCQQSNEDPWTFGGGTKVEIKRTVAAPSVFIFPPSDEQLKSGTASVVCLLNNFYPREAKVQWKVDNALQSGNSQESVTEQDSKDSTYSLSSTLTLSKADYEKHKVYACEVTHQGLSSPVTKSFNRGECGGGGSEVTLRESGPALVKPTQTLTLTCTFSGFSLSNFGEGLSWIRQPPGKGLEWLAHIYWDDDKRYNPSLKSRLTISKDTSRNQVVLTMTNMDPVDTATYYCARRETVFYWYFDVWGQGTTVTVSSASTKGPSVFPLAPSSKSTSGGTAALGCLVKDYFPEPVTVSWNSGALTSGVHTFPAVLQSSGLYSLSSVVTVPSSSLGTQTYICNVNHKPSNTKVDKKVEPKSCEKTHTCPPCPAPEAAGAPSVFLFPPKPKDTLMISRTPEVTCVVVDVSHEDPEVKFNWYVDGVEVHNAKTKPREEQYNSTYRVVSVLTVLHQDWLNGKEYKCKVSNKALPAPIEKTISKAKGQPREPQVYTLPPSREEMTKNQVSLTCEVKGFYPSDIAVEWESNGQPENNYKTTPPVLDSDGSFFLYSKLTVDKSRWQQGNVFSCSVLHEALHSHYTQKSLSLSPGK
light 1: DIQMTQSPSSLSASVGDRVTITCRASQPIHNHLDWYQQKPGKAPKLLIYFGKNLQEGVPSRFSGSGSGTDFTLTISSLQPEDFATYYCFQYKKGWSFGGGTKVEIKRTVAAPSVFIFPPSDEQLKSGTASVVCLLNNFYPREAKVQWKVDNALQSGNSQESVTEQDSKDSTYSLSSTLTLSKADYEKHKVYACEVTHQGLSSPVTKSFNRGEC
light 2: DIQMTQSPSSLSASVGDRVTITCRASQSVDEEGDSYMNWYQQKPGKAPKLLIYAASNLESGVPSRFSGSGSGTDFTLTISSLQPEDFATYYCQQSNKDPPTFGGGTKVEIKRTVAAPSVFIFPPSDEQLKSGTASVVCLLNNFYPREAKVQWKVDNALQSGNSQESVTEQDSKDSTYSLSSTLTLSKADYEKHKVYACEVTHQGLSSPVTKSFNRGEC
chain 2: EVQLVESGGGLVQPGGSLRLSCAASGFTFSSYAMSWVRQAPGKGLEWVASISSGDTTYYPDSVKGRFTISRDNAKNSLYLQMNSLRAEDTAVYYCARNEGYYFGLTLWGQGTLVTVSSASTKGPSVFPLAPSSKSTSGGTAALGCLVKDYFPEPVTVSWNSGALTSGVHTFPAVLQSSGLYSLSSVVTVPSSSLGTQTYICNVNHKPSNTKVDKKVEPKSC
notes: Trispecific Tri-Fab-Fc, dual cell, EE/RR, LS; Chains in order: SFab HC(3), DFab LC(1)-HC(2), SFab LC(3), DFab LC(2), modified Fd(1)

— patent US20240117030A1 (Pfizer, published 2024)
